Reference: patent US12097265B2, “Cytotoxic particles for targeting P2X7 receptor” (BIOSCEPTRE (AUST) PTY LTD, priority 2016, dated 2024)

Experiments:
[1] = system: 4T1 murine breast tumour; assay: Dosing regimen investigation: coated nanoparticles versus free gemcitabine, tumour growth; format: in vivo, mice
[2] = system: 4T1-luc2 murine breast cancer cells; assay: Biodistribution imaging of fluorescently labelled nanoparticles in 4T1-luc2 tumour bearing mice; format: in vivo
Procedure: The near-infrared (NIR) lipophilic fluorescent dye DiR (ThermoFisher) was incorporated into the lipid bilayer of naked nanoparticles, nanoparticles coated with HEL4 (isotype) and nanoparticles coated with variable domains for binding to anti-P2X7R (P2X7-binding domain-coated nanoparticles, or “BIL03s-coated”). Female Balb/c mice were inoculated orthotopically (4th mammary fat pad) with 4T1-luc2 murine breast cancer cells. A 50 μL dose of nanoparticles was injected intravenously at study day 0 and near-infrared (NIR) imaging was performed at 6, 12, 24, 48 and 96 […]. At termination, excised liver, spleen and tumour NIR imaging was performed and bioluminescence imaging was performed on tumour tissues.

[3] = system: 4T1 murine breast tumour; assay: Efficacy of gemcitabine liposome nanoparticles in the 4T1 murine breast tumour model; format: in vivo, mice; conditions: 0.2 mg gemcitabine, intravenously 3 times a week; versus HEL4-coated nanoparticles containing gemcitabine; P=0.0456
Procedure: This study aimed to determine the efficacy of P2X7-binding domain-coated nanoparticles (i.e., “BIL03s-coated”) and HEL4-coated nanoparticles to deliver the cytotoxic agent gemcitabine to tumours in the 4T1 murine breast tumour model.
Nanoparticles were administered intravenously, 3 times a week. Nanoparticles contained either 0.2 mg gemcitabine or PBS buffer (control).
Tumour volume was measured over the study period (see FIG. 10). Mice were terminated when estimated tumour volume exceeded 1000 mm^3.

B1: P2X7-binding domain-coated nanoparticles containing gemcitabine: Liposome of DOPC, oleyl-gemcitabine carbamate conjugate and Maleimido-Succinyl-PEG4000-Oleate, conjugated to an anti-P2X7R single … (conjugate)
VH: EVQLLESGGGLVQPGGSLRLSCAASGFTFRNHDMGWVRQAPGKGLEWVSAISGSGGSTYYANSVKGRFTISRDNSKNTLYLQMNSLRAEDTAVYYCAEPKPMDTEFDYRSPGTLVTVSS
efficacy for inhibiting tumour growth ([1]; equivalent to 0.3 mg gemcitabine, intravenously twice per week (FIG. 11), versus 0.3 mg free gemcitabine): comparable | release of cytotoxic agent ([1]; general statement): sustained release | toxicity ([1]; general statement, versus existing cancer treatments): lower toxicity | accumulation in the excised tumour ([2]; ex vivo bioluminescence imaging at 96 hr, FIG. 9, versus naked nanoparticles): higher accumulation in the excised tumour | accumulation in tumours ([2]; whole animal NIR imaging and ex vivo bioluminescence, 50 μL intravenous on day 0, versus naked or HEL4-coated control nanoparticles): greater accumulation in tumours | retention in the tumour ([2]; whole animal NIR imaging, FIG. 7, versus non antibody-conjugated particles): retained in the tumour much longer | survival [3]: prolonged survival | tumour suppression (tumour volume) [3]: greater tumour suppression
